Data taken from a protein production outcome set (Wang et al. 2014).

Assay: label from the status in PepcDB records
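Note: failed if final PepcDB status was selected cloned or expressed and not failed if soluble or beyond.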

Sequence	protein production
MADNTNVTRRSFLTATGAAAGSVALVGVSAGESDDPWNSDRSEYIVGVSNVEDDPQQHVEQYLQGQEQVGSVQERLNTAVVGLPADAPESVRKQFVDRLESRDTIKYVEQNVELQAQLVPNDPRFGDQYADQQVNAPEAWDTTTGDAGVTIGVVDQGVKYDHPDLDGNIDRSVSNGGRDFVDDDGDPYPDSLNEEIHGTHVAGIAAAEVNNGNGVTGIGNSSVIAGRALSERGSGSTADIADAITWAANEGADVINLSLGGGGYTNTMQNAVTYAANQGALVVAAAGNDGSGSVSYPAAYGGVLAVSALDPDESLASYSNYGPKIDLAAPGTNVLSTWTADDYESISGTSMATPVVAGVAGLTLAQWELSNAELRNHLKATAVDIGLSDRQQGAGRVDAANAVNTDPGSGGGGGGGGGGDSTSSSVSGSLRGRGDSNCWSFSYEYSNPSQVVIELDGPGNADFDLYANTSTNACPTTSSYEFRSWTTGSQESITIDNPDTSVDLNVLAYAYSGRGDLTVTVTEYK	failed
MADPRTDNRNRKIPDAQVDAIKVPPHSLEAEQSVIGGLLLDNERWDTVSEHVMTQDFYSRPHRLIFDGVKSILEAGKPLDLITLSEYLEQREQLEDVGGFAYLADLAKNTPSAANINAYAEIVAERALVRNLIGVANEIADAGYDPQGRNAEDLLDLAESKVFAIAEARTSENEGPKNVDSILERTLERIELLYKTPQDGVTGVNTGFTDLNKKTAGLQGSDLIIVAARPSMGKTTFAMNLCENAAMEQDKPVLIFSLEMPAEQIMMRMLASLSRVDQTKIRTGQLDDEDWARISSTMGILMEKKNMYIDDSSGLTPTEVRSRARRIAREHGGLSLIMVDYLQLMRVPALTDNRTLEIAEISRSLKALAKELNVPVVALSQLNRSLEQRADKRPVNSDLRESGSIEQDADLIMFIYRDEVYHPDSPLKGTAEIIIGKQRNGPIGSVRLTFQGHYSRFDNYAGPAFDDE	not failed
MADPTSSERLLVTAALPYANGPIHIGHLAGAYLPADLFVRYQRLKGEDVAFICGSDEMGVAILMRAIREDRTPEDIIDTYHPQIRDNFERFGMSFDYYGRTSSETHTETTQDFFRVLDENGGFDLKTDEQLYDPEAEMFLADRFVIGTCPVCGFEEAYGDQCEQCGSSLSPTELENPQSTLTDATPEFKETTHWYLPLGELQPQLEEWIGSHPEWKNNVVGQIQSWFDEGLKGRAITRDVLWGVPVPDDVAERHGLEAEGKVIYVWFDAPIGYISATKEWAAEQGEPDAWTDYWQDEDTRLVHFIGKDNIVFHCLMFPSMLMEHGDYVLPDNVPANEFLNLEGEKLSTSRGWAVWLHEYLDDFADERHAPDLLRYALATTLPETKDADFSWEGFQQRVNGELANVFGNFVHRTLTFAQRYFDGTVPPLEDPSEADRVMLDRMAEVPDTVGAAYEEHRTRDAVFETMALARRGNKYFNDTEPWHTHESDPQACANTIHVSLQVCAALSILFEPVLPSAAATLRERIGLENVRTSTPDDDPAGAVGWEDAGAPLLPAGHPIPSGPDPEPLFQKIDDDTIEAQIEKLRDRAAERDTDPSSTTDMDYEALSDNISFDDFTQLDLRAGTVTTAEPVPDADKLLRLEVDLGFEERQILAGVAEQMAPDDVVGLEVVVVANMAPKEMFGFESQGMVLMAEEPDGTFVPVTTEAEDGSVVR	failed
MADRPIEIVDRQNVLTVHLPGTYTVMYDARYCYVSYIPVSETVAEFTLTGFKYPLTNCHISRGSTLCISNELIQSSGTFSFSEGILMMIRSSDSLEHHHHHH	failed
MADRQLLHTAHIPVRWGDMDSYGHVNNTLYFQYLEEARVAWFETLGIDLEGAAEGPVVLQSLHTYLKPVVHPATVVVELYAGRLGTSSLVLEHRLHTLEDPQGTYGEGHCKLVWVRHAENRSTPVPDSIRAAIA	not failed
MADSDSNEVLIEEIDSNDVPENELEQFQETEPLRVVDIIDCDTDGERRCIADDEEEGALIKRYVQGVQCLEFPDFCTKLEASDEDEEGNDEEPSEAAGSIEKPNTSAQAKTSQEQSTGSGRSGGGGFRKSQLSTALQGLMGEANLSFVYGRYETAERICMEIIRQNPLASEPFYTLAEIYENRDEVKFLNFSTLAAHLNPQDRDMWIRVSDLLVQQGNLARARLIYTKAIKMLPKVYQLRLRKAQLLQKMGETNASMFTYLKMLPLMPPDEWKMCLNTAKNVARYFHVLEKHSLALEAMEGAYSVCGARFTLEDINIYLELLILNKQYAKVLRCLRERTNFELENDQEESLELIYFCEIPDDYVPELRAKLCVSLIHMRAHHLLGYLIQNVQEHITLTADRVELYMDITEALMQEHKYAEAIALMSPITDGDTVECPAFVWLRQAECLRQLNRTNEAIQSYEKVVQLAPFCYDARFTLSALLKQQGRHEEAVQALEQPGEAEGQPLIARLLYERCVMLQQIGRIEEFLDVGYALLSRHSIKLYNREEMMAAANGGSAYNSESLKTIIQMRSKAVDNSAEQDLQDPAKNAASETSDLTVKDEFELFRELVRTAFKHGMHSAAEKICFAMVTTKRFTYYHHEIERIMVLTCYYNDDCAIAFSYLRELIAKQPSQTTLWNMLSLMIQKGDEVRYYRYMRRLMQRHPVDTKPMRIFQGHYHLNCASFKYALNIYMPILRENPDPLVALCIAVAFNQLSLQKKVLRKSASVAQAVAFGQRYKELRSAGHELADCAAQQEIFYNIGRIYHQANILHLAVDYYEKALAVPVHPLIAEHESTLGLQHEVAFNLHLIYRANGNKWKARQYLMRYCVV	failed
MADSIKSSNSFQKLDNIDAKETSTVDRKWVALTAYQPVDVVTKTVEVPIIKTVEKYVPKTIIQEKIIHVPKNVTHIVEKIVEVPEVKYIEKIVEVPHIHYKNKYVPKIEIVEKVVERQKIIEKWHDKIVEVPQIKEVVRFKQIEDSEEIIKYVPRNSKNIDWEDEYKKYTESKGLQRYSLDQNNIYQQANSFNQFNENAYNQNAFNRSYELLNKQSSVKSQNNASGENFSQMNFYNQYSGANFEQERSIQASNFEPSGSMQLKRLSSEEIKPAGCCSAACT	failed
MADSKSFTFELNESVLTAQVGRLDEMAMVVEQRFSELKMTIEDVGNADPGSKISESLGGLQSGLGTISSAFGQLGSSSEAITSGFGTAVGSVGGITDAFKNLGSSVQNGTLFSSLATGIGGMSTMLGGVSGGVQGITNLASGFMELKNHLGGLMSSIGGVGGIMGKLTSPMGLVIIGIVALVAAFAYLMTTNESFRNTVMSVVTQVAQLFGQLVASLMPIIMQIVTAVMQIGAALMPMVMQFISFFAQLLAQLMPFINMLISMLMPVIMQIVQVVMSLVSALLPSIMTVIQGIMSVIQFLIPIIMQIATVVVQIVVTIISYISKIMPIVMTIIGVIVSIITTIISYVVIIATTIASVIGKIISFIASVITAVIGIVQPIIAFITNIFTTIVTIIGAAFQMVFTVASKIWNSIMSTISGIIDGIKAVITGISTTVSSVFNGVKRIITGVFDGIKSAWGGLTDFVGNIFDGVSSAIQTVVDNVKGFVNVVIRGINGAIGLINKIPGVEIGKIPQLISGTTNFQGGFARMNEGGRGEMVVLPSGSQVIPHDATMKYARESARGNKSMLYTSQGADLARVENLLERLLQKNPVIKMDDKVVAEVVSRNQANSFDQYNYTMGGAAYS	not failed
MADSLAGIDQVTSLHKNNELQLLCFRLGKNKDLYAVNVFKIREVVKYHGNLTIISHENNSLVEGLIIIRELTIPLIDMKKWFYYDSQNKNKDLRPYRIEKEKGEDDIVMICEFSRWTIGVRIYEADRILSKKWTEMEQSAGLGGSAGNNKLVSRTRYFDGRLVQVVDIEKMLIDVFPWIEDEKHNDLETLSKIHSNQCVLLADDSPSVLKTMQMILDKLGVKHIDFINGKTLLEHLFNPTTDVSNIGLIITDLEMPEASGFEVIKQVKNNPLTSKIPIVVNSSMSGSSNEDMARSLKADDFISKSNPKDIQRVVKQFLELA	failed
MADSRQAQGPGKSVLGIGQRIVTIIVEMVETRLRLAVVELEEEKANLFQLLLMVGLTMLFAAFGLMSLMVLVIWAIDPQYRLNAMIATTVVLLVLALIGGIWTLRKARQSTLLRHTRHELANDRQILEDDQS	failed
MADSSRADFWEQRYREGVTPWEGGQLPPRARAFFAAQRPLRVLMPGCGSAADLPPLLAMGHDVLAVDFSEAAIELAARQWPEAAGRLLLADFFQLQMPAFDCLFERAFLCALPVGMRSQYAERVAALIAPGGALAGVFFVADTERGPPFGMQAEALRELLSPWFELEEDLALDESVAVFRNRERWMVWRRRGFDLGQVSEHESTGNCGAHRKE	failed
